Test results from patent US20230348616A1 (MIE UNIVERSITY, published 2023).
Like-named read-outs stand apart in the source and are kept apart here.

Assays:
[1] = target: T1, HLA-A*0201/β2-microglobulin/NY-ESO peptide complex (human, biotinylated with E. coli biotin ligase at the added recognition sequence (biotinylated form used in the ELISA)); test: SPR (Biacore T200), scFv captured by anti-His antibody, HLA/NY-ESO as analyte, single cycle kinetics
T1 construct: also called HLA/NY-ESO; HLA-A2/NY-ESO
Method: With the use of Biacore T200, anti-HLA/NY-ESO scFv was captured as a ligand by the immobilized anti-His antibody, and the antigen was assayed as an analyte. As the antigen, HLA/NY-ESO prepared in 1)-1 was used. The anti-His antibody (His Capture kit, GE Healthcare) was immobilized on Sensor Chip CM5 (GE Healthcare) in accordance with the instructions of the kit. The anti-HLA/NY-ESO scFv constructs diluted to 0.5 μg/ml in HBS-EP+ (GE Healthcare) to be evaluated were brought into contact therewith at 10 μl/min for 60 seconds for immobilization. Thereafter, the samples were added to the HLA/NY-ESO analytes diluted to various levels with HBS-EP+ at a flow rate of 30 μl/min for 120 seconds and dissociation was assayed for 600 seconds.

[2] = target: T2, HLA-A2/NY-ESO peptide complex presented on cells (human); test: flow cytometry on peptide-pulsed T2 cells, scFv 100 nM;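 for result: scFv binding read as gMFI and normalized to the level of HLA/peptide complex displayed on T2 cells, with homologous 9-mer peptides used to probe specificity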
T2 construct: whole, on cells; also called HLA/NY-ESO; T2 cells supplemented with the NY-ESO peptide

gp100 [3] = target: T3, gp100 (human); test: as above
T3 construct: cell surface;cell surface complex; also called HLA-A2 / gp100 peptide complex on T2 cells

[4] = target: T4, HLA-A2 / homologous peptide CD163 complex on T2 cells (human); test: as above
T4 construct: whole, on cells; also called T2 cells supplemented with homologous peptide CD163
Method: (§1) The cells were washed 2 times in PBS containing 5% FBS, immobilized with Mildform 10 N (FUJIFILM Wako Pure Chemical Corporation) overnight, and resuspended in PBS containing 5% FBS. The cell suspensions were subjected to detection using a flow cytometer (CantoII, Becton Dickinson). […] The standardized gMFI indicating the binding affinity of each scFv standardized with the amount of the HLA/peptide complex on the T2 cells was determined in accordance with the following equation.
(§2) The 9-mer peptide shown in FIG. 2A was selected as a homologous peptide for evaluation of binding specificity of anti-HLA/NY-ESO scFv. […] The standardized gMFI indicating the binding affinity of each scFv standardized with the amount of the HLA/peptide complex on the T2 cells was determined in accordance with the following equation.

[5] = target: T2, HLA-A2/NY-ESO peptide complex presented …; test: as above; remark: listed apart in the source
Method: as §1, §2

[6] = target: T5, HLA-A2 / homologous peptide P2RY8 complex on T2 cells (human); test: as above
T5 construct: whole, on cells; also called T2 cells supplemented with homologous peptide P2RY8
Method: as §1, §2

[7] = target: T6, HLA-A2 / homologous peptide IL20RB complex on T2 cells (human); test: as above
T6 construct: whole, on cells; also called T2 cells supplemented with homologous peptide IL20RB
Method: as §1, §2

gp100 [8] = target: T3, gp100; test: as above; remark: listed apart in the source
Method: as §1, §2

[9] = target: T7, HLA-A2 / homologous peptide PRKD2 complex on T2 cells (human); test: as above
T7 construct: whole, on cells; also called T2 cells supplemented with homologous peptide PRKD2
Method: as §1, §2

[10] = target: T8, HLA-A2 / homologous peptide DOLPP1 complex on T2 cells (human); test: as above
T8 construct: whole, on cells; also called T2 cells supplemented with homologous peptide DOLPP1
Method: as §1, §2

[11] = target: T4, HLA-A2 / homologous peptide CD163 …; test: flow cytometry, peptide-pulsed T2 cells
[12] = target: T5, HLA-A2 / homologous peptide P2RY8 …; test: flow cytometry, peptide-pulsed T2 cells
[13] = target: T6, HLA-A2 / homologous peptide IL20RB …; test: flow cytometry, peptide-pulsed T2 cells
[14] = target: T7, HLA-A2 / homologous peptide PRKD2 …; test: flow cytometry, peptide-pulsed T2 cells
[15] = target: T8, HLA-A2 / homologous peptide DOLPP1 …; test: flow cytometry, peptide-pulsed T2 cells

Binder	Kd [1]	standardized gMFI [2]	standardized gMFI (gp100 [3])	standardized gMFI [4]	standardized gMFI [5]	standardized gMFI [6]	standardized gMFI [7]	standardized gMFI (gp100 [8])	standardized gMFI [9]	standardized gMFI [10]	binding result [11]	binding result [12]	binding result [13]	binding result [14]	binding result [15]	binding result [4]	binding result [6]	binding result [7]	binding result [10]
NYC-0003 (scFv, not shown: small tags and cut ends, also called 3M4E5 scFv; NYC-0003 tag adduct) scFv: EVQLLESGGGLVQPGGSLRLSCAASGFTFSTYQMSWVRQAPGKGLEWVSGIVSSGGSTAYADSVKGRFTISRDNSKNTLYLQMNSLRAEDTAVYYCAGELLPYYGMDVWGQGTTVTVSSGGGGSGGGGSGGGGSQSELTQPRSVSGSPGQSVTISCTGTSRDVGGYNYVSWYQQHPGKAPKLIIHDVIERSSGVPDRFSGSKSGNTASLTISGLQAEDEADYYCWSFAGSYYVFGTGTDVTVL	8.1 nM	3.74	0.39	1.08	5.22	2.01	0.43	0.32	1.53	0.38	–	–	–	–	–	–	–	–	–
NYC-0004 (scFv, not shown: small tags and cut ends, also called T1 scFv; NYC-0004 tag adduct) scFv: EVQLLESGGGLVQPGGSLRLSCAASGFTFSTYQMSWVRQAPGKGLEWVSGIVSSGGSTAYADSVKGRFTISRDNSKNTLYLQMNSLRAEDTAVYYCAGELLPYYGMDVWGQGTTVTVSSGGGGSGGGGSGGGGSQSELTQPRSVSGSPGQSVTISCTGTERDVGGYNYVSWYQQHPGKAPKLIIHDVIERSSGVPDRFSGSKSGNTASLTISGLQAEDEADYYCWSFAGGYYVFGTGTDVTVL	2.8 nM	6.02	0.37	0.49	9.19	1.98	0.43	0.32	3.41	0.39	–	–	–	–	–	–	–	–	–
NYA-0001 (scFv, also called NYA-0001 tag adduct; NY-R119 expressed in a cultured mammalian cell) scFv: GEVQLVESGGGVVQPGRSLTPSCSASGFSIRSYDIHWVRQAPGKGLEWVATISYDGSQKYFADSVKGRFTIFRDESENMVYLQMSGLRVEDTAVYHCARGSSGHYEAFDIWGQGTMVTVSSGGGGSGGGGSGGGGSQSVLTQPPSVSAAPGQKVTISCSGSSSNIGNNYVSWYQQLPGTAPKLLIYDNNKRPSGIPDRFSGSKSGTSATLGITGLQTGDEADYYCGTWDSSLSAPWVFGGGTKVTVLGAAAGAGGDYKDDDDKGAAAHHHHHH	33.8 nM	5.75	0.43	0.48	5.12	0.73	0.42	0.31	0.33	0.37	no binding (tested: 100 nM)	no binding (tested: 100 nM)	no binding (tested: 100 nM)	no binding (tested: 100 nM)	no binding (tested: 100 nM)	–	–	–	–
NYA-2023 (scFv) scFv: GEVQLVESGGGVVQPGRSLTPSCSASGFSIRSYDIHWVRQAPGKGLEWVATISYDGSQKYFADSVKGRFTIFRDESENMVYLQMSGLRVEDTAVYHCARGSSGHYEAFDIWGQGTMVTVSSGGGGSGGGGSGGGGSQSVLTQPPSVSAAPGQKVTISCSGSSSNIGNWYVSWYQQLPGTAPKLLIYDNNKRPSGIPDRFSGSKSGTSATLGITGLQTGDEADYYCGTWDSSLSAPWVFGGGTKVTVLGAAAGAGGDYKDDDDKGAAAHHHHHH	2.4 nM	8.85	0.4	0.48	10.1	0.7	0.42	0.3	0.42	0.42	no binding (tested: 100 nM)	no binding (tested: 100 nM)	no binding (tested: 100 nM)	no binding (tested: 100 nM)	no binding (tested: 100 nM)	–	–	–	–
NYA-1154 (scFv) scFv: GEVQLVESGGGVVQPGRSLTPSCSASGFSIRSYDMHWVRQAPGKGLEWVATISYDGSQKYFADSVKGRFTIFRDESENMVYLQMSGLRVEDTAVYHCARGSSNHYEAFDIWGQGTMVTVSSGGGGSGGGGSGGGGSQSVLTQPPSVSAAPGQKVTISCSGSSSNIGNNYVSWYQRLPGTAPKLLIYDNNKRPSGIPDRFSGSKSGTSATLGITGLQTGDEADYYCGAWDSSLSAPWVFGGGTKVTVLGAAAGAGGDYKDDDDKGAAAHHHHHH	–	9.98	0.46	0.54	13.8	0.65	0.51	0.31	2.72	0.46	–	–	–	–	–	no binding (tested: 100 nM)	no binding (tested: 100 nM)	no binding (tested: 100 nM)	no binding (tested: 100 nM)
NYA-1143 (scFv) scFv: GEVQLVESGGGVVQPGRSLTPSCSASGFSIRSYDIHWVRLAPGKGLEWVATISYDGSQKYFADSVKGRFTIFRDESENMVYLQMSGLRVEDTAVYHCARGSSGHYEAFDIWGQGTMVTVSSGGGGSGGGGSGGGGSQSVLTQPPSVSAAPGQKVTISCSGSSSNIGNWYVSWYQQLPGTAPKLLIYDNNKRPSGIPDRFSGSKSGTSATLGITGLQTGDEADYYCGTWDSSLSAPWVFGGGTKVTVLGAAAGAGGDYKDDDDKGAAAHHHHHH	1 nM	12.9	0.41	0.46	13.4	0.69	0.42	0.3	0.32	0.37	no binding (tested: 100 nM)	no binding (tested: 100 nM)	no binding (tested: 100 nM)	no binding (tested: 100 nM)	no binding (tested: 100 nM)	–	–	–	–
NYA-2027 (scFv) scFv: GEVQLVESGGGVVQPGRSLTPSCSASGFSIRSYDIHWVRQAPGKGLEWVATISYDGSQKYFADSVKGRFTIFRDESENMVYLQMSGLRVEDTAVYHCARGSSGHYEAFDIWGQGTMVTVSSGGGGSGGGGSGGGGSQSVLTQPPSVSAAPGQKVTISCSGSSSNIGNNYVSWYQQLPGTAPKLLIYDNNKRPSGIPDRFSGSKSGTSATLGITGLQTGDEADYYCGSWDSSLSAPWVFGGGTKVTVLGAAAGAGGDYKDDDDKGAAAHHHHHH	11.2 nM	5.75	0.41	0.51	7.25	0.7	0.42	0.31	0.32	0.39	no binding (tested: 100 nM)	no binding (tested: 100 nM)	no binding (tested: 100 nM)	no binding (tested: 100 nM)	no binding (tested: 100 nM)	–	–	–	–
NYA-1163 (scFv) scFv: GEVQLVESGGGVVQPGRSLTPSCSASGFSIRSYDIHWVRLAPGKGLEWVATISYDGSQKYFADSVKGRFTIFRDESENMVYLQMSGLRVEDTAVYHCARGSSGHYEAFDIWGQGTMVTVSSGGGGSGGGGSGGGGSQSVLTQPPSVSAAPGQKVTISCSGSSSNIGNNYVSWYQQLPGTAPKLLIYDNNKRPSGIPDRFSGSKSGTSATLGITGLQTGDEADYYCGTWDSSLSAPWVFGGGTKVTVLGAAAGAGGDYKDDDDKGAAAHHHHHH	13 nM	3.67	0.44	0.46	4.21	0.69	0.41	0.3	0.31	0.36	no binding (tested: 100 nM)	no binding (tested: 100 nM)	no binding (tested: 100 nM)	no binding (tested: 100 nM)	no binding (tested: 100 nM)	–	–	–	–
